Measured values from patent publication US20220363770A1 (Amgen, published 2022).
Residue numbers refer to the chain shown, from its start. Names may count otherwise.

T1: human PAC1 receptor on SH-SY5Y (CRL-2266) cells (human, UniProt P41586 24-468)
T1 sequence: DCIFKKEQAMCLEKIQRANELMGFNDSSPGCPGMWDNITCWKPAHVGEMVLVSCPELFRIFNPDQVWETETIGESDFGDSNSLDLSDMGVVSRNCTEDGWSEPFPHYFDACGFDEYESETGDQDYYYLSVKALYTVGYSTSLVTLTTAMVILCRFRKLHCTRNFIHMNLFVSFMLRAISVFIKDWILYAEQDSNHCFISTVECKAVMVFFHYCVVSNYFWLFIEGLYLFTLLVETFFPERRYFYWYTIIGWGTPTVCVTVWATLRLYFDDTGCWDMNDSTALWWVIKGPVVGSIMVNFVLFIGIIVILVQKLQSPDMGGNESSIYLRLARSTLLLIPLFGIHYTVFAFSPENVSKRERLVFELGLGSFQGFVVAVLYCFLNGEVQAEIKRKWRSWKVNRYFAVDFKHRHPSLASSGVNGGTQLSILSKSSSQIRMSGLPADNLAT

B1: 4E4 heavy chain Y103A single-point alanine variant antibody (antibody, V domains shown)
VH: QVQLVESGGGVVQPGRSLRLSCAASGFTFSSFGMHWVRQAPGKGLEWVAVISFDGSIKYSVDSVKGRFTISRDNSKNTLFLQMNSLRAEDTAVYYCARDRLNAYDSSGYYHYKYYGMAVWGQGTTVTVSS
VL: QSVLTQPPSVSAAPGQKVTISCSGSSSNIGNNYVSWYQQLPGTAPKLLIYDNNKRPSGIPDRFSGSKSGTSTTLGITGLQTGDEADYYCGTWDSRLSAVVFGGGTKLTVLG
notes: Recombinantly expressed as a monoclonal antibody
B2: 4E4 heavy chain Y104A single-point alanine variant antibody (antibody, V domains shown)
VH: B1 VH with A103Y, Y104A
VL: B1 VL
notes: as for B1
B3: 4E4 heavy chain Y109A single-point alanine variant antibody (antibody, V domains shown)
VH: B1 VH with A103Y, Y109A
VL: B1 VL
notes: as for B1
B4: 4E4 heavy chain Y110A single-point alanine variant antibody (antibody, V domains shown)
VH: B1 VH with A103Y, Y110A
VL: B1 VL
notes: as for B1
B5: 4E4 single-point alanine variant antibody H_D54A (antibody, V domains shown)
VH: B1 VH with D54A, A103Y
VL: B1 VL
notes: Recombinantly expressed as monoclonal antibody; also called CDRH2 D54A antibody variant
B6: 4E4 single-point alanine variant antibody H_Y103A (antibody, V domains shown)
VH: B1 VH
VL: B1 VL
notes: Recombinantly expressed as monoclonal antibody
B7: 4E4 single-point alanine variant antibody H_Y104A (antibody, V domains shown)
VH: B1 VH with A103Y, Y104A
VL: B1 VL
notes: as for B6
B8: 4E4 single-point alanine variant antibody H_Y109A (antibody, V domains shown)
VH: B1 VH with A103Y, Y109A
VL: B1 VL
notes: as for B6
B9: 4E4 single-point alanine variant antibody H_Y110A (antibody, V domains shown)
VH: B1 VH with A103Y, Y110A
VL: B1 VL
notes: as for B6
B10: iPS:571023 (5607) anti-CGRP receptor/anti-PAC1 receptor bispecific hetero-immunoglobulin (bispecific antibody, human IgG1, kappa, lambda, N297G)
light 1: QSVLTQPPSVSAAPGQKVTISCSGSYSNIGRYSVSWYQQLPGTAPKLLIYDNNKRPSGIPDRFSGSKSGTSATLGITGLQTGDEADYYCGTWDSRLSAVVFGGGTKLTVLGQPKAAPSVTLFPPSSEELQANKATLVCLISDFYPGAVTVAWKADSSPVKAGVETTTPSKQSNNKYAAKSYLSLTPEQWKSHRSYSCQVTHEGSTVEKTVAPTECS
heavy 1: QVQLVESGGGVVQPGRSLRLSCAASGFTFSSFGMHWVRQAPGKGLEWVAVISFDGSIKYSVDSVKGRFTISRDNSKNTLFLQMNSLRAEDTAVYYCARDRLNYYESSGYYHYKYYGMAVWGQGTTVTVSSASTKGPSVFPLAPSSKSTSGGTAALGCLVKDYFPEPVTVSWNSGALTSGVHTFPAVLQSSGLYSLESVVTVPSSSLGTQTYICNVNHKPSNTKVDKKVEPKSCDKTHTCPPCPAPELLGGPSVFLFPPKPKDTLMISRTPEVTCVVVDVSHEDPEVKFNWYVDGVEVHNAKTKPCEEQYGSTYRCVSVLTVLHQDWLNGKEYKCKVSNKALPAPIEKTISKAKGQPREPQVYTLPPSRKEMTKNQVSLTCLVKGFYPSDIAVEWESNGQPENNYKTTPPVLKSDGSFFLYSKLTVDKSRWQQGNVFSCSVMHEALHNHYTQKSLSLSPGK
light 2: EIVLTQSPATLSLSPGERATLSCRASKSVGRSLHWYQQKPGQAPRLLIKYASQSLSGIPARFSGSGSGTDFTLTISSLEPEDFAVYYCHQSSRLPFTFGPGTKVDIKRTVAAPSVFIFPPSDEQLKSGTASVVCLLNNFYPREAKVQWKVDNALQSGNSQESVTEQDSKDSTYSLESTLTLSKADYEKHKVYACEVTHQGLSSPVTKSFNRGEC
heavy 2: not shown
B11: iPS:571033 (5608) anti-CGRP receptor/anti-PAC1 receptor bispecific hetero-immunoglobulin (bispecific antibody, human IgG1, kappa, lambda, N297G)
light 1: B10 light 1
heavy 1: B10 heavy 1 with K369E, E370K
light 2: B10 light 2
heavy 2: not shown
B12: iPS:571824 (5609) anti-CGRP receptor/anti-PAC1 receptor bispecific hetero-immunoglobulin (bispecific antibody, human IgG1, kappa, lambda, N297G)
light 1: B10 light 1
heavy 1: B10 heavy 1 with M265Y, S267T, T269E, K369E, E370K
light 2: B10 light 2
heavy 2: not shown

biological target: T2, soluble CGRP receptor (extracellular domains of human CRLR and human RAMP1) (human, UniProt Q16602 23-133; O60894 26-117); assay: SPR (Biacore T200), antibody captured by goat anti-human Fc, soluble CGRP receptor as analyte
T2 construct: the tag and the thrombin site are not described; also called soluble human CGRP receptor; CGRP receptor ECD
T2 sequence (Q16602 23-133, chain 1 of 2): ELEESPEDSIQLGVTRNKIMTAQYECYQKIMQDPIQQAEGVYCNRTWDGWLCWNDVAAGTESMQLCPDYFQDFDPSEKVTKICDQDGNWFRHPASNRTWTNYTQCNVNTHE
T2 sequence (O60894 26-117, chain 2 of 2): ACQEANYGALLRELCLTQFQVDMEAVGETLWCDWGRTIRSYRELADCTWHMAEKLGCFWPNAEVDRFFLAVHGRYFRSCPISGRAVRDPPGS

Binder | binding result
B1 | no binding (tested: soluble CGRP receptor up to 1000 nM)
B2 | no binding (tested: soluble CGRP receptor up to 1000 nM)
B3 | no binding (tested: soluble CGRP receptor up to 1000 nM)
B4 | no binding (tested: soluble CGRP receptor up to 1000 nM)

biological target: T3, soluble CGRP receptor (ECDs of human CRLR and human RAMP1) (human, UniProt Q16602 23-133; O60894 26-117); assay: SPR (Biacore T200), antibody captured, soluble CGRP receptor as analyte
T3 construct: complex treated with thrombin before crystallization; also called soluble human CGRP receptor; CRLR ECD/RAMP1 ECD heterodimer
T3 sequence (Q16602 23-133, chain 1 of 2): as the sequence (Q16602 23-133, chain 1 of 2) above
T3 sequence (O60894 26-117, chain 2 of 2): as the sequence (O60894 26-117, chain 2 of 2) above

Binder | fold faster dissociation rate against wild-type 4E4 [fold] | binding result
B5 | ~5 | –
B6 | – | no binding (tested: 1000 nM (highest analyte concentration))
B7 | – | no binding (tested: 1000 nM (highest analyte concentration))
B8 | – | no binding (tested: 1000 nM (highest analyte concentration))
B9 | – | no binding (tested: 1000 nM (highest analyte concentration))

biological target: T1, human PAC1 receptor on SH-SY5Y …; assay: cell-based or functional assay

Binder | Fold-improvement over 29G4v22 Ab (human PAC1 receptor IC50) [fold] | Human PAC1 Receptor IC50 (nM), cell-based cAMP assay [nM]
B10 | 4.4 | 0.88
B11 | 7.2 | 0.57
B12 | 6.6 | 0.62

biological target: human CGRP receptor (human CRLR / human RAMP1 heterodimer) on SK-N-MC (HTB-10) cells (human, UniProt Q16602 23-461; O60894 27-148); assay: cell-based or functional assay
Sequence (Q16602 23-461 limits assumed, chain 1 of 2): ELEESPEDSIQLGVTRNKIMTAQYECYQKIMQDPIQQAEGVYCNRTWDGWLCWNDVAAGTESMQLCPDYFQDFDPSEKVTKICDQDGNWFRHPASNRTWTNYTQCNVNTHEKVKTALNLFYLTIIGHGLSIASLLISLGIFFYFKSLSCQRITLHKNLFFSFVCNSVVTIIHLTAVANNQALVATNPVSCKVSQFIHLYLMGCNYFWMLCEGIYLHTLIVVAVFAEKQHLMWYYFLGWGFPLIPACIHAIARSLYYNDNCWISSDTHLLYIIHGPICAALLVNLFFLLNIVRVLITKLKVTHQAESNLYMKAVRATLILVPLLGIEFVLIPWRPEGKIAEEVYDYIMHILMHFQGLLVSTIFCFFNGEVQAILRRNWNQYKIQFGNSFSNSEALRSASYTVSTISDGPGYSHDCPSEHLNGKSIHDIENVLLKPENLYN
Sequence (O60894 27-148 limits assumed, chain 2 of 2): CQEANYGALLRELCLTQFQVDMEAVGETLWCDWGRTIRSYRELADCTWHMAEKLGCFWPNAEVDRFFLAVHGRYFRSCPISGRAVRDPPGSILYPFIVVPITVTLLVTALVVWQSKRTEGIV

Binder | Fold-improvement over 4E4 Ab (human CGRP receptor IC50) [fold] | Human CGRP Receptor IC50 (nM), cell-based cAMP assay [nM]
B10 | 0.9 | 0.63
B11 | 1.7 | 0.33
B12 | 1.5 | 0.38
